The target in this experiment is rabbit reticulocyte lysate 60S ribosomal subunit, purified (rabbit) (UniProt G1SV32). The experiment in a line: co-sedimentation.

Consider “recombinant full-length Ebp1 with a N-terminal histidine tag (Ebp1-His) (from UniProt P50580 1-394) (natural protein)”, for which the Ebp1 concentration at saturated binding (100 nM 60S) worked out at 200 nM and the Kd amounted to 124 nM.

As usually defined, the Kd is a measure of binding affinity in units of concentration. Read a low Kd as tighter binding.

These data come from publication doi:10.1101/2020.02.08.939488.
